Measurements as given in publication PMC7767363, “Development of HER2-Specific Aptamer-Drug Conjugate for Breast Cancer Therapy”.

Biological target: HER2 (His-tagged HER2 protein) (UniProt P04626 23-652)
Test: Ni-NTA bead pull-down with RT-qPCR quantification; 1.5 mM Mg2+; 3 nM HER2, aptamer 0-100 nM; 30 mM Tris-HCl, 150 mM NaCl, 1.5 mM MgCl2, pH not stated, 30 min at room temperature (bead assay); cells 37 C, 30 min to 4 h
Settings: tags: His

AGCCGCGAGGGGAGGGAUAGGGUAGGGCGCGGCU (XNA, 2'-fluoro C and U (all pyrimidines)) [HER2 RNA aptamer (2'-F pyrimidine)] was tested. Which Kd did it give?
Its Kd is 16.5 ± 4.4 nM.
